Here are results for four proteins from paper PMC4109901, “Functional EF-Hands in Neuronal Calcium Sensor GCAP2 Determine Its Phosphorylation State and Subcellular Distribution In Vivo, and Are Essential for Photoreceptor Cell Integrity” (PLoS Genetics, 2014).

The labels stand for the following.
B1: recombinant bGCAP2, mock-treated (unphosphorylated) (natural protein, bovine, UniProt P51177 1-204, looked up)
chain: MGQQFSWEEAEENGAVGAADAAQLQEWYKKFLEECPSGTLFMHEFKRFFKVPDNEEATQYVEAMFRAFDTNGDNTIDFLEYVAALNLVLRGTLEHKLKWTFKIYDKDRNGCIDRQELLDIVESIYKLKKACSVEVEAEQQGKLLTPEEVVDRIFLLVDENGDGQLSLNEFVEGARRDKWVMKMLQMDLNPSSWISQQRRKSAMF
notes: Cross-linked to magnetic beads for the pull-down; also called mock bGCAP2; recombinant wildtype bGCAP2
B2: recombinant phosphorylated bEF^−GCAP2 (natural protein, bovine, UniProt P51177 1-204, looked up)
chain: B1 chain with E80Q, E116Q, D158N
modifications: phosphorylated in vitro by PKG; Ser201 named as the site
notes: Cross-linked to magnetic beads for the pull-down
B3: recombinant phosphorylated bGCAP2 (natural protein, bovine, UniProt P51177 1-204, looked up)
chain: B1 chain
modifications: phosphorylated in vitro by PKG; Ser201 named as the site
notes: Cross-linked to magnetic beads for the pull-down; also called P-GCAP2
B4: recombinant bEF^−GCAP2, mock-treated (unphosphorylated) (natural protein, bovine, UniProt P51177 1-204, looked up)
chain: B1 chain with E80Q, E116Q, D158N
notes: Cross-linked to magnetic beads for the pull-down; also called mock bEF^−GCAP2; unphosphorylated bEF^−GCAP2

Numbering of substitutions follows the chain as printed.

This series deals with the molecule itself. As to the kind of experiment: SDS-PAGE and immunoblot; in vitro phosphorylation reactions (with or without cGMP, in EGTA) of purified recombinant GCAP2 resolved by 15% SDS-PAGE and immunostained for GCAP2; bands above the 25 kDa monomer. In general terms: Immunoblotting shows a protein as a band on a membrane.
Turning to B1, the binding result was “binds”.
B2: the binding result is given as “binds”.
For the protein B3, the binding result is “binds”.
The same measure for B4: “binds”.
